Tests used:
CL203 mAb = test: Indirect immunofluorescence flow cytofluorometry: mAb CL203 binding to COS cells expressing ICAM-1 mutants (SLFI, % WT); type: cell-based; details: SLFI of CL203 for mutant normalized to wild type CL203 SLFI; level of expression
How it was run: (§1)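 Transfected COS cells expressing ICAM-1 point mutants were stained by indirect immunofluorescence and analysed by flow cytometry. Specific linear fluorescence intensity of CL203 is expressed relative to wild-type CL203; RR1/1, R6.5 and LB-2 SLFI are expressed relative to CL203 SLFI of the same mutant.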

LB-2 mAb = test: Indirect immunofluorescence flow cytofluorometry: mAb LB-2 binding to COS cells expressing ICAM-1 mutants (SLFI, % CL203); type: cell-based; details: SLFI normalized to CL203 SLFI of the mutant
How it was run: as §1

R6.5 mAb = test: Indirect immunofluorescence flow cytofluorometry: mAb R6.5 binding to COS cells expressing ICAM-1 mutants (SLFI, % CL203); type: cell-based; details: SLFI normalized to CL203 SLFI of the mutant
How it was run: as §1

LFA-1 = biological target: T1, LFA-1 (Homo sapiens, UniProt P05107+P20701); test: Adherence of COS cells expressing ICAM-1 or ICAM-1 mutants to plastic-bound purified LFA-1; type: cell-based; details: COS cells expressing ICAM-1 mutant adhering to LFA-1 coated plastic; normalized for percent of cells expressing mutant and for wild type binding; mean
T1 construct: endogenous in cells
T1 sequence (P20701 26-1170): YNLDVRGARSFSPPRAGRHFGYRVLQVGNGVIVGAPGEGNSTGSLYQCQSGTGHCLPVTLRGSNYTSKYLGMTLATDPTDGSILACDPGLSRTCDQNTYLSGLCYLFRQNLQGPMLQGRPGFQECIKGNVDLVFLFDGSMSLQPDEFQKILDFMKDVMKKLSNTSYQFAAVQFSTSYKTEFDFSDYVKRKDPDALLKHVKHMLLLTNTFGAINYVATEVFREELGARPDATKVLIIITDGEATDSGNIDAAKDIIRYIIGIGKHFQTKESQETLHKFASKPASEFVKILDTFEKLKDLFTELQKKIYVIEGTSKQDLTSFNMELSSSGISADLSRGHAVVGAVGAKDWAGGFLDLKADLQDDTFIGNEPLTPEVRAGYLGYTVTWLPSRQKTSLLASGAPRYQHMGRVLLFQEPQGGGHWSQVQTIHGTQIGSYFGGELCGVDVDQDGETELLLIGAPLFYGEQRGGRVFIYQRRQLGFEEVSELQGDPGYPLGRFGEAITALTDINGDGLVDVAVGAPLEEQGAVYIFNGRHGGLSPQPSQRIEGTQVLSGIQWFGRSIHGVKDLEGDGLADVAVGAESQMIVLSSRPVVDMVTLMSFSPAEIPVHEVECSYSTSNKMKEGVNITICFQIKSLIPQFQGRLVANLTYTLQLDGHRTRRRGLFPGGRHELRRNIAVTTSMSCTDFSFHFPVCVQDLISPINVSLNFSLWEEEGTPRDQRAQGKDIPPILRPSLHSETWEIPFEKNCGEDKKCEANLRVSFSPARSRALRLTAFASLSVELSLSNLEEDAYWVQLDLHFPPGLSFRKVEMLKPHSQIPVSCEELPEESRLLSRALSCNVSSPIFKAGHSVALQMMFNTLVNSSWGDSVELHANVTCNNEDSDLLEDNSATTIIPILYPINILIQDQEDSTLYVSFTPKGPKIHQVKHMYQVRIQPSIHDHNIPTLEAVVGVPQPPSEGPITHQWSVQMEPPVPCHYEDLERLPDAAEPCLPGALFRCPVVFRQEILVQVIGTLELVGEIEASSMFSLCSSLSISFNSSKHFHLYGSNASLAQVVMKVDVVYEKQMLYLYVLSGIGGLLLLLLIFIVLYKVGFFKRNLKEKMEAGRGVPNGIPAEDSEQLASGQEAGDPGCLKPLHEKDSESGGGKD
T1 sequence (P05107 23-769): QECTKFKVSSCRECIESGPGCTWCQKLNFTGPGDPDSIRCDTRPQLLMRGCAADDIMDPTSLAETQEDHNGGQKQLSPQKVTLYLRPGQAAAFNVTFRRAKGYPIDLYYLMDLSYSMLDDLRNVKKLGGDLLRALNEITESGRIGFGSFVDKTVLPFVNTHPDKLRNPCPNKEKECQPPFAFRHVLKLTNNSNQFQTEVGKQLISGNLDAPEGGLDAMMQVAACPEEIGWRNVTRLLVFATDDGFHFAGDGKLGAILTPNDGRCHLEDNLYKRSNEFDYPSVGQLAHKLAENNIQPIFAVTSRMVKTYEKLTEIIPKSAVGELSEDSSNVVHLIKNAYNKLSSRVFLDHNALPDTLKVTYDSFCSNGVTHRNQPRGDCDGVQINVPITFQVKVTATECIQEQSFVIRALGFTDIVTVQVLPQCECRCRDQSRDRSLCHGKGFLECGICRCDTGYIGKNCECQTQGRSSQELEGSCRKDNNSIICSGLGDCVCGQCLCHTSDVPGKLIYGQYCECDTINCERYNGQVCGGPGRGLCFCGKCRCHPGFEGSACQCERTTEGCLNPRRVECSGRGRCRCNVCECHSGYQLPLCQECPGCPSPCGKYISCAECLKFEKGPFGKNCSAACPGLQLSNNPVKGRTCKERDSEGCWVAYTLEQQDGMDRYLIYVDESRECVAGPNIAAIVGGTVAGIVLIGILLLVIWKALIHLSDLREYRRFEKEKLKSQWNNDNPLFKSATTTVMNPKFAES

HRV14 = test: Binding of [^35S]-Met labeled HRV14 to COS cells expressing ICAM-1 mutants; type: cell-based, human rhinovirus 14; details: 35S met-labeled HRV14 binding to COS cells expressing ICAM-1 mutant; normalized for percent of cells expressing mutant and for wild type binding; mean
RR1/1 mAb = test: Indirect immunofluorescence flow cytofluorometry: mAb RR1/1 binding to COS cells expressing ICAM-1 mutants (SLFI, % CL203); type: cell-based; details: SLFI normalized to CL203 SLFI of the mutant
How it was run: as §1

B1: V136GE/GVK (protein, UniProt P05362 28-532, looked up, variant V136G G137V E138K)
Intercellular adhesion …: QTSVSPSKVILPRGGSVLVTCSTSCDQPKLLGIETPLPKKELLLPGNNRKVYELSNVQEDSQPMCYSNCPDGQSTAKTFLTVYWTPERVELAPLPSWQPVGKNLTLRCQVEGGAPRANLTVVLLRGEKELKREPAGVKPAEVTTTVLVRRDHHGANFSCRTELDLRPQGLELFENTSAPYQLQTFVLPATPPQLVSPRVLEVDTQGTVVCSLDGLFPVSEAQVHLALGDQRLNPTVTYGNDSFSAKASVSVTAEDEGTQRLTCAVILGNQSQETLQTVTIYSFPAPNVILTKPEVSEGTEVTVKCEAHPRAKVTLNGVPAQPLGPRAQLLLKATPEDNGRSFSCSATLEVAGQLIHKNQTRELRVLYGPRLDERDCPGNWTWPENSQQTPMCQAWGNPLPELKCLKDGTFPLPIGESVTVTRDLEGTYLCRARSTQGEVTRKVTVNVLSPRYEIVIITVVAAAVIMGTAGLSTYLYNRQRKIKKYRLQQAQKGTPMKPNTQATPP
CL203 mAb
  Cl203 % WT (SLFI): 171 % WT
LB-2 mAb
  SLFI (% CL203) LB-2: 138 % CL203
R6.5 mAb
  SLFI (% CL203) R6.5: 172 % CL203
LFA-1
  LFA-1 Binding %: 92%
HRV14
  HRV Binding %: 117%
RR1/1 mAb
  SLFI (% CL203) RR/1: 220 % CL203

B2: H152HGA/EEGS (protein, UniProt P05362 28-532, looked up, variant H152E H153E A155S)
Intercellular adhesion …: QTSVSPSKVILPRGGSVLVTCSTSCDQPKLLGIETPLPKKELLLPGNNRKVYELSNVQEDSQPMCYSNCPDGQSTAKTFLTVYWTPERVELAPLPSWQPVGKNLTLRCQVEGGAPRANLTVVLLRGEKELKREPAVGEPAEVTTTVLVRRDEEGSNFSCRTELDLRPQGLELFENTSAPYQLQTFVLPATPPQLVSPRVLEVDTQGTVVCSLDGLFPVSEAQVHLALGDQRLNPTVTYGNDSFSAKASVSVTAEDEGTQRLTCAVILGNQSQETLQTVTIYSFPAPNVILTKPEVSEGTEVTVKCEAHPRAKVTLNGVPAQPLGPRAQLLLKATPEDNGRSFSCSATLEVAGQLIHKNQTRELRVLYGPRLDERDCPGNWTWPENSQQTPMCQAWGNPLPELKCLKDGTFPLPIGESVTVTRDLEGTYLCRARSTQGEVTRKVTVNVLSPRYEIVIITVVAAAVIMGTAGLSTYLYNRQRKIKKYRLQQAQKGTPMKPNTQATPP
CL203 mAb
  Cl203 % WT (SLFI): 94 % WT
LB-2 mAb
  SLFI (% CL203) LB-2: 112 % CL203
R6.5 mAb
  SLFI (% CL203) R6.5: 94 % CL203
LFA-1
  LFA-1 Binding %: 85%
HRV14
  HRV Binding %: 82%
RR1/1 mAb
  SLFI (% CL203) RR/1: 103 % CL203

B3: N175TSA/QTLG (protein, UniProt P05362 28-532, looked up, variant N175Q S177L A178G)
Intercellular adhesion …: QTSVSPSKVILPRGGSVLVTCSTSCDQPKLLGIETPLPKKELLLPGNNRKVYELSNVQEDSQPMCYSNCPDGQSTAKTFLTVYWTPERVELAPLPSWQPVGKNLTLRCQVEGGAPRANLTVVLLRGEKELKREPAVGEPAEVTTTVLVRRDHHGANFSCRTELDLRPQGLELFEQTLGPYQLQTFVLPATPPQLVSPRVLEVDTQGTVVCSLDGLFPVSEAQVHLALGDQRLNPTVTYGNDSFSAKASVSVTAEDEGTQRLTCAVILGNQSQETLQTVTIYSFPAPNVILTKPEVSEGTEVTVKCEAHPRAKVTLNGVPAQPLGPRAQLLLKATPEDNGRSFSCSATLEVAGQLIHKNQTRELRVLYGPRLDERDCPGNWTWPENSQQTPMCQAWGNPLPELKCLKDGTFPLPIGESVTVTRDLEGTYLCRARSTQGEVTRKVTVNVLSPRYEIVIITVVAAAVIMGTAGLSTYLYNRQRKIKKYRLQQAQKGTPMKPNTQATPP
CL203 mAb
  Cl203 % WT (SLFI): 75 % WT
LB-2 mAb
  SLFI (% CL203) LB-2: 44 % CL203
R6.5 mAb
  SLFI (% CL203) R6.5: 50 % CL203
LFA-1
  LFA-1 Binding %: 26%
HRV14
  HRV Binding %: 40%
RR1/1 mAb
  SLFI (% CL203) RR/1: 19 % CL203

B4: D213GL/HGV (protein, UniProt P05362 28-532, looked up, variant D213H L215V)
Intercellular adhesion …: QTSVSPSKVILPRGGSVLVTCSTSCDQPKLLGIETPLPKKELLLPGNNRKVYELSNVQEDSQPMCYSNCPDGQSTAKTFLTVYWTPERVELAPLPSWQPVGKNLTLRCQVEGGAPRANLTVVLLRGEKELKREPAVGEPAEVTTTVLVRRDHHGANFSCRTELDLRPQGLELFENTSAPYQLQTFVLPATPPQLVSPRVLEVDTQGTVVCSLHGVFPVSEAQVHLALGDQRLNPTVTYGNDSFSAKASVSVTAEDEGTQRLTCAVILGNQSQETLQTVTIYSFPAPNVILTKPEVSEGTEVTVKCEAHPRAKVTLNGVPAQPLGPRAQLLLKATPEDNGRSFSCSATLEVAGQLIHKNQTRELRVLYGPRLDERDCPGNWTWPENSQQTPMCQAWGNPLPELKCLKDGTFPLPIGESVTVTRDLEGTYLCRARSTQGEVTRKVTVNVLSPRYEIVIITVVAAAVIMGTAGLSTYLYNRQRKIKKYRLQQAQKGTPMKPNTQATPP
CL203 mAb
  Cl203 % WT (SLFI): 128 % WT
LB-2 mAb
  SLFI (% CL203) LB-2: 107 % CL203
R6.5 mAb
  SLFI (% CL203) R6.5: 175 % CL203
LFA-1
  LFA-1 Binding %: 90%
HRV14
  HRV Binding %: 99%
RR1/1 mAb
  SLFI (% CL203) RR/1: 231 % CL203

B5: R149RD/EEG (protein, UniProt P05362 28-532, looked up, variant R149E R150E D151G)
Intercellular adhesion …: QTSVSPSKVILPRGGSVLVTCSTSCDQPKLLGIETPLPKKELLLPGNNRKVYELSNVQEDSQPMCYSNCPDGQSTAKTFLTVYWTPERVELAPLPSWQPVGKNLTLRCQVEGGAPRANLTVVLLRGEKELKREPAVGEPAEVTTTVLVEEGHHGANFSCRTELDLRPQGLELFENTSAPYQLQTFVLPATPPQLVSPRVLEVDTQGTVVCSLDGLFPVSEAQVHLALGDQRLNPTVTYGNDSFSAKASVSVTAEDEGTQRLTCAVILGNQSQETLQTVTIYSFPAPNVILTKPEVSEGTEVTVKCEAHPRAKVTLNGVPAQPLGPRAQLLLKATPEDNGRSFSCSATLEVAGQLIHKNQTRELRVLYGPRLDERDCPGNWTWPENSQQTPMCQAWGNPLPELKCLKDGTFPLPIGESVTVTRDLEGTYLCRARSTQGEVTRKVTVNVLSPRYEIVIITVVAAAVIMGTAGLSTYLYNRQRKIKKYRLQQAQKGTPMKPNTQATPP
CL203 mAb
  Cl203 % WT (SLFI): 159 % WT
LB-2 mAb
  SLFI (% CL203) LB-2: 166 % CL203
R6.5 mAb
  SLFI (% CL203) R6.5: 189 % CL203
LFA-1
  LFA-1 Binding %: 81%
HRV14
  HRV Binding %: 139%
RR1/1 mAb
  SLFI (% CL203) RR/1: 166 % CL203

B6: D229QR/HLE (protein, UniProt P05362 28-532, looked up, variant D229H Q230L R231E)
Intercellular adhesion …: QTSVSPSKVILPRGGSVLVTCSTSCDQPKLLGIETPLPKKELLLPGNNRKVYELSNVQEDSQPMCYSNCPDGQSTAKTFLTVYWTPERVELAPLPSWQPVGKNLTLRCQVEGGAPRANLTVVLLRGEKELKREPAVGEPAEVTTTVLVRRDHHGANFSCRTELDLRPQGLELFENTSAPYQLQTFVLPATPPQLVSPRVLEVDTQGTVVCSLDGLFPVSEAQVHLALGHLELNPTVTYGNDSFSAKASVSVTAEDEGTQRLTCAVILGNQSQETLQTVTIYSFPAPNVILTKPEVSEGTEVTVKCEAHPRAKVTLNGVPAQPLGPRAQLLLKATPEDNGRSFSCSATLEVAGQLIHKNQTRELRVLYGPRLDERDCPGNWTWPENSQQTPMCQAWGNPLPELKCLKDGTFPLPIGESVTVTRDLEGTYLCRARSTQGEVTRKVTVNVLSPRYEIVIITVVAAAVIMGTAGLSTYLYNRQRKIKKYRLQQAQKGTPMKPNTQATPP
CL203 mAb
  Cl203 % WT (SLFI): 210 % WT
LB-2 mAb
  SLFI (% CL203) LB-2: 100 % CL203
R6.5 mAb
  SLFI (% CL203) R6.5: 92 % CL203
LFA-1
  LFA-1 Binding %: 90%
HRV14
  HRV Binding %: 106%
RR1/1 mAb
  SLFI (% CL203) RR/1: 94 % CL203

B7: R166PQ/EPA (protein, UniProt P05362 28-532, looked up, variant R166E Q168A)
Intercellular adhesion …: QTSVSPSKVILPRGGSVLVTCSTSCDQPKLLGIETPLPKKELLLPGNNRKVYELSNVQEDSQPMCYSNCPDGQSTAKTFLTVYWTPERVELAPLPSWQPVGKNLTLRCQVEGGAPRANLTVVLLRGEKELKREPAVGEPAEVTTTVLVRRDHHGANFSCRTELDLEPAGLELFENTSAPYQLQTFVLPATPPQLVSPRVLEVDTQGTVVCSLDGLFPVSEAQVHLALGDQRLNPTVTYGNDSFSAKASVSVTAEDEGTQRLTCAVILGNQSQETLQTVTIYSFPAPNVILTKPEVSEGTEVTVKCEAHPRAKVTLNGVPAQPLGPRAQLLLKATPEDNGRSFSCSATLEVAGQLIHKNQTRELRVLYGPRLDERDCPGNWTWPENSQQTPMCQAWGNPLPELKCLKDGTFPLPIGESVTVTRDLEGTYLCRARSTQGEVTRKVTVNVLSPRYEIVIITVVAAAVIMGTAGLSTYLYNRQRKIKKYRLQQAQKGTPMKPNTQATPP
CL203 mAb
  Cl203 % WT (SLFI): 94 % WT
LB-2 mAb
  SLFI (% CL203) LB-2: 64 % CL203
R6.5 mAb
  SLFI (% CL203) R6.5: 109 % CL203
LFA-1
  LFA-1 Binding %: 75%
HRV14
  HRV Binding %: 25%
RR1/1 mAb
  SLFI (% CL203) RR/1: 100 % CL203

B8: D203TQ/TAD (protein, UniProt P05362 28-532, looked up, variant D203T T204A Q205D)
Intercellular adhesion …: QTSVSPSKVILPRGGSVLVTCSTSCDQPKLLGIETPLPKKELLLPGNNRKVYELSNVQEDSQPMCYSNCPDGQSTAKTFLTVYWTPERVELAPLPSWQPVGKNLTLRCQVEGGAPRANLTVVLLRGEKELKREPAVGEPAEVTTTVLVRRDHHGANFSCRTELDLRPQGLELFENTSAPYQLQTFVLPATPPQLVSPRVLEVTADGTVVCSLDGLFPVSEAQVHLALGDQRLNPTVTYGNDSFSAKASVSVTAEDEGTQRLTCAVILGNQSQETLQTVTIYSFPAPNVILTKPEVSEGTEVTVKCEAHPRAKVTLNGVPAQPLGPRAQLLLKATPEDNGRSFSCSATLEVAGQLIHKNQTRELRVLYGPRLDERDCPGNWTWPENSQQTPMCQAWGNPLPELKCLKDGTFPLPIGESVTVTRDLEGTYLCRARSTQGEVTRKVTVNVLSPRYEIVIITVVAAAVIMGTAGLSTYLYNRQRKIKKYRLQQAQKGTPMKPNTQATPP
CL203 mAb
  Cl203 % WT (SLFI): 125 % WT
LB-2 mAb
  SLFI (% CL203) LB-2: 86 % CL203
R6.5 mAb
  SLFI (% CL203) R6.5: 116 % CL203
LFA-1
  LFA-1 Binding %: 91%
HRV14
  HRV Binding %: 111%
RR1/1 mAb
  SLFI (% CL203) RR/1: 178 % CL203
